Among the data in patent publication US20240317826A1 (ALBERT EINSTEIN COLLEGE OF MEDICINE, published 2024) are IC50 values, retold here.

The target of this test is T1, GST-CTD (C-terminal domain of HIV-1 integrase, aa 201-288, GST fusion) (HIV-1 (Hx3B), UniProt P04585 1348-1435).
T1 construct: domain: C-terminal (IN-CTD, aa 201-288 of integrase); also called IN-CTD; pGST-IN-CTD(aa 201-288); not shown: GST tag from pGEX3xPL vector
Put plainly: Alpha proximity competition, low salt: increasing INI1183-304 added to GST-CTD + biotinylated TAR RNA; displaced competitor is TAR RNA.

B1: His6-SUMO-INI1183-304 (other)
chain: PEVLVPIRLDMEIDGQKLRDAFTWNMNEKLMTPEMFSEILCDDLDLNPLTFVPAIASAIRQQIESYPTDSILEDQSDQRVIIKLNIHVGNISLVDQFEWDMSEKENSPEKFALKLCSELGLG
notes: range 183-304; also called 6His-SUMO-INI1183-304; Rpt1 (cartoon label); not shown: His6-SUMO (h6-smt3) tag from pET28a-h6-smt3
The IC50 is the concentration that inhibits the measured activity by half. Consider B1, for which the IC50 was about 5 nM.
